The record followed here is the nanobody polyreactivity screen of Harvey et al. (2022).

This series in a line: yeast display, Sf9 membrane polyspecificity reagent, FACS + sequencing; frameworks hold sequencing errors. Summed up: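 Nanobodies from a synthetic yeast display library (Saccharomyces cerevisiae BJ5465), induced 36–48 hours with galactose, were stained 1 hour at 4 °C with 10% biotinylated, detergent-solubilized Sf9 membrane reagent, enriched on streptavidin microbeads, then FACS-sorted. Anti-HA (expression) and streptavidin (reagent binding) fluorescence set low and high (top ~1%) gates. Polyreactivity labels come from the gate of origin. Genes were colony-PCR amplified, MiSeq 2 × 250 sequenced and filtered by CDR length.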
For “QVQLVESGGGLVQAGGSLRLSCAASGSIFVYYALGWYRQAPGKERELVAAISSSGDTTYYADSVKGRFTISRDNAKNTVYLQMNSLKPEDTAVYYCNTRNDRASQRWVSREMDYWGQGTQVTVSS”, the “polyreactivity (PSR sort gate)” value is given as “high polyreactivity”.
For “QVQLVESGGGLVQAGGSLRLSCAASGSIFVYYAMGWYRQAPGKERELVARITRGGRTYYADSVKGRFTISRDNAKNTVYLQMNSLKPEDTAVYYCAADYRVQLRKEYDYWGQGTQVTVSS”, the “polyreactivity (PSR sort gate)” value is “high polyreactivity”.
Take “QVQLVESGGGLVQAGGSLRLSCAASGSIFVYYAMGWYRQAPGKERELVATINYNDGSTYYADSVKGRFTISRDNAKNTVYLQMNSLKPEDTAVYYCAADIVWSPESHPWYYVHYYYWGQGTQVTVSS”: the “polyreactivity (PSR sort gate)” value is “low polyreactivity”.
The same measure for “QVQLVESGGGLVQAGGSLRLSCAASGSIFVYYTMGWYRQAPGKERELVAAISISGTSTYYADSVKGRFTISRDNAKNTVYLQMNSLKPEDTAVYYCAADTYYGEDYWGQGTQVTVSS”: “low polyreactivity”; for “QVQLVESGGGLVQAGGSLRLSCAASGSIFWANAMGWYRQAPGNERELVAAISRSGTSTFYADSVKGRFTISRDNAKNTVYLQMNSLKPEDTAVYYCNAVGSGYRSWYVYWGQGTQVTVSS”: “high polyreactivity”; for “QVQLVESGGGLVQAGGSLRLSCAASGSIFWAYAMGWYRQAPGKERELVAAISRGGTTTYADSVKGRFTISRDNAKNTVYLQMNSLKPEDTAVYYCARRAVYSKRRYDYWGQGTQVTVSS”: “low polyreactivity”.
As for “QVQLVESGGGLVQAGGSLRLSCAASGSIFWDYAMGWYRQSPGKERELVAAISGSGTSTYYADSVKGRFTISRDNAKNTVYLQMNSLKPEDTAVYYCAARIWTGRGRKLGNGYDYWGQGTQVTVSS”, the “polyreactivity (PSR sort gate)” value is listed as “low polyreactivity”.
The same measure for “QVQLVESGGGLVQAGGSLRLSCAASGSIFWGNAMGWYRQAPGKERELVAAIDWSGGSTYYADSVKGRFTISRDNAKNTVYLQMHSLKPEDTAVYYCAASGRYDYDYWGQGTQVTVSS”: “low polyreactivity”; for “QVQLVESGGGLVQAGGSLRLSCAASGSIFWGNAMGWYRQAPGKERELVAGISRGGSTYYADSVKGRFTISRDNAKNTVYLQMNSLKPEDTAVYYCNADSDPVTAGYDYWGQGTQVTVSS”: “low polyreactivity”; for “QVQLVESGGGLVQAGGSLRLSCAASGSIFWGNTMGWYRQAPGKERELVAAISRSGSSTYYADSVKGRFTISRDNAKNTVYLQMNSLKPEDTAVYYCAASVPYYTGYYYNAYEYWGQGTQVTVSS”: “high polyreactivity”.
In the case of “QVQLVESGGGLVQAGGSLRLSCAASGSIFWHNAMGWYRQAPGTEREFVAAISGSGGSTYYADSVKGRFTISRDNAKNTVYLQMISLKPEDTAVYYCAADIYYWSFYYSRYDYWGQGTQVTVSS”, the “polyreactivity (PSR sort gate)” value was “high polyreactivity”.
For the sequence “QVQLVESGGGLVQAGGSLRLSCAASGSIFWKNAMGWYRQAPGKERELVAAITRRGGSTYYADSVKGRFTISRDNAKNTVYLQMNSLKPEDTAVYYCAATGGAPYKIEWGQGTQVTVSS”, the “polyreactivity (PSR sort gate)” value was “low polyreactivity”.
In the case of “QVQLVESGGGLVQAGGSLRLSCAASGSIFWKYAMGWYRQAPGKERELVAAISDGVSTNYADSVKGRFTISRDNAQNTVYLQMNSLKPEDTAVYYCNAETRERDPTREFDYWGQGTQVTVSS”, the “polyreactivity (PSR sort gate)” value was “low polyreactivity”.
As for “QVQLVESGGGLVQAGGSLRLSCAASGSIFWNAMGWNKQAPGKERELVAAISWSGTRTYYADSVKGRFTISRDNAKNTVYLQMNSLKPEDTAVYYCNAVQWNAYYYWGQGTQVTVSS”, the “polyreactivity (PSR sort gate)” value is listed as “high polyreactivity”.
The same measure for “QVQLVESGGGLVQAGGSLRLSCAASGSIFWNNDMGWYRPAPGKERELVAGISGGSTNYADSVKGRFTISRDNAKNTVYLQMNSLKPEDTAVYYCATERQWESRLEAYDYWGQGTQVTVSS”: “low polyreactivity”; for “QVQLVESGGGLVQAGGSLRLSCAASGSIFWPNAMGWYRQAPGKERELVAAISRGGSTNYADSVKGRFTISRDNAKNTVYLQMNSLKPEDTAVYYCATDAYYYNLLYLFPRYDYWGQGTQVTVSS”: “low polyreactivity”.
Take “QVQLVESGGGLVQAGGSLRLSCAASGSIFWPYAMGWYRQAPGKEREFVAAITWSGGSTYYADSVKGRFTISRDNAKNTVYLQMNSLKPEDTAVYYCAAEITWYYHDFGYWGQGTQVTVSS”: the “polyreactivity (PSR sort gate)” value is given as “high polyreactivity”.
Take “QVQLVESGGGLVQAGGSLRLSCAASGSIFWPYTMGWSRQAPGKECELVAAITSTDSTDYADSVKGRFTISRDNAKNTVYLQMNSLKPEDTAVYYCNADYQSRTGSGIYTDHPYDYWGQGTQVTVSS”: the “polyreactivity (PSR sort gate)” value is “low polyreactivity”.
For “QVQLVESGGGLVQAGGSLRLSCAASGSIFWQYAMGWYRQAPGKERELVAAINWSGDTTYYADSVKGRFTISRDNAKNTVYLQMNSLKPEDTAVYYCAAVGGVSFGGSPKTHAGEDYWGQGTQVTVSS”, the “polyreactivity (PSR sort gate)” value is on record as “low polyreactivity”.
As to “QVQLVESGGGLVQAGGSLRLSCAASGSIFWRNAMGWYRQAPGKEREFVAAISARGGSTYYADSVKGRFTISRDNAKNTVYLQMNSLKPEDSAVYDCAASWGLGTYSDSTYWGGYYYWGQGTQVTVSS”, the “polyreactivity (PSR sort gate)” value is on record as “low polyreactivity”.
Next, “QVQLVESGGGLVQAGGSLRLSCAASGSIFWRNAMGWYRQAPGKERELVAAISGNGGTTYYADSVKGRFTISRDNAKNTVYLQMNSLKPEDTAVYYCAKVGKTYRTYEYWGQGTQVTVSS”: “high polyreactivity”.
As for “QVQLVESGGGLVQAGGSLRLSCAASGSIFWRYAMGWYRQAPGKERELVAAIDVSGATTYYADSVKGRFTISRDNAKNTVYLQMNSLKPEDTAVYYCATYATNSVAAYDYWGQGTQVTVSS”, the “polyreactivity (PSR sort gate)” value is given as “low polyreactivity”.
“QVQLVESGGGLVQAGGSLRLSCAASGSIFWRYAMGWYRQAPGKERELVAVISDRGGITYYADSVKGRFTISRDNAKNTVYLQMNSLKPEDTAVYYCNAVDSDRSDPSEYDYWGQGTQVTVSS”: the “polyreactivity (PSR sort gate)” value was “low polyreactivity”.
Consider “QVQLVESGGGLVQAGGSLRLSCAASGSIFWSNARGWYRQAPGKERELVATIDDDVGSTYYADSVKGRFTISRDNAKNTVYLQMNSLKPEDTAVYYCAADSVYYVMPYEYWGQGTQVTVSS”, for which the “polyreactivity (PSR sort gate)” value is on record as “low polyreactivity”.
Take “QVQLVESGGGLVQAGGSLRLSCAASGSIFWSYAMGWYRQAPGKEREFVASITGSGGTTTYADSVKGRFTISRDNAKNTVYLQMNSLKPEDTAVYYCNARLHGWYHVYYIYDYWGQGTQVTVSS”: the “polyreactivity (PSR sort gate)” value is listed as “low polyreactivity”.
The same measure for “QVQLVESGGGLVQAGGSLRLSCAASGSIFWTKAMGWYRQAPGKERELVARITYSGGSTYYADSVKGRFTISRDNAKNTVYLQMNSLKPEDTAVYYCNARTHGWPYSRYYYWGQGTQVTVSS”: “high polyreactivity”; for “QVQLVESGGGLVQAGGSLRLSCAASGSIFWVNGMGWYRQAPGKERELVAAITWSGGSTYYADSVKGRFTISRDNAKNTVYLQMNSLKPEDTAVYYCAAYCQYYLWDGYGYWGQGTQVTVSS”: “low polyreactivity”.
“QVQLVESGGGLVQAGGSLRLSCAASGSIFWVYAMGWYRQAPGKERELVAAISSSGGRTYYADSVKGRFTISRDNAKNTVYLQMNSLKPEDTAVYYCASRWKTGYNYWGQGTQVTVSS”: the “polyreactivity (PSR sort gate)” value is on record as “high polyreactivity”.
Next, “QVQLVESGGGLVQAGGSLRLSCAASGSIFWVYAMGWYRQAPGKERELVADISRSGGSTYYADSVKGRFTISRDNAKNTVYLQMNSLKPEDTAVYYCAAEYYGQVLFQPYVYQLMYYWGQGTQVTVSS”: “low polyreactivity”; “QVQLVESGGGLVQAGGSLRLSCAASGSIFWWYAMGWYRPAPGKERELVAAISGRGGNTYYADSVKGRFTISRDNAKNTVYLQMNSLKPEDTAVYYCNADDTKYPYYTDDYWGQGTQVTVSS”: “low polyreactivity”; “QVQLVESGGGLVQAGGSLRLSCAASGSIFWYNAMGWYRQAPGKERELVAAIDRSGGNTYYADSVKGRFTISRDNAKNTVYLQMNSLKPEDTAVYYCARRIGRTYRYVYWGQGTQVTVSS”: “high polyreactivity”.
For the sequence “QVQLVESGGGLVQAGGSLRLSCAASGSIFWYNAMGWYRQAPGKERELVAAIRWRGGSTYYADSVKGRFTISRDNAKNTVYLQMNSLKPEDTAVYYCARDRYYRTLGYGYWGQGTQVNVSS”, the “polyreactivity (PSR sort gate)” value is reported as “high polyreactivity”.
The same measure for “QVQLVESGGGLVQAGGSLRLSCAASGSIFWYNAMGWYRQAPGKERELVAAIRWRGGSTYYADSVKGRFTISRDNAKNTVYVQMSSLKPEDTAVYYCAAQVYVSQLYTSYYYWGQGTQVTVSS”: “high polyreactivity”; for “QVQLVESGGGLVQAGGSLRLSCAASGSIFWYYAMGWYRQAPGKERELVAAISISGSTYYADSVKGRFTISRDNAKNTVYLQMNSLKPEDTAVYYCAARKFFWRSNYDYWGQGTQVTVSS”: “low polyreactivity”; for “QVQLVESGGGLVQAGGSLRLSCAASGSIFWYYAMGWYRQAPGKERELVASISSSGGSTYYADSVKGRFTISRDNAKNTVYLQMNSLKPEYTAVYYCAKRTNWGYWYNSWGQGTQVTVSS”: “high polyreactivity”.
Turning to “QVQLVESGGGLVQAGGSLRLSCAASGSIFWYYAMGWYRQAPGKERELVASITSAGSTNYADSVKGRFTISRDNAKNTVYLQMNSLKPEDTAVYYCNTDDDSSSTGYYSWGQGTQVTVSS”, the “polyreactivity (PSR sort gate)” value is reported as “low polyreactivity”.
Next, “QVQLVESGGGLVQAGGSLRLSCAASGSIFYANTLGWYRQAPGTERELVAAINWSGGRTYYADSVKGRFTISRDNAKNTVYLQMNSLKPEDTAVYYCAASATYLYKYPVWGYDYWGQGTQVTVSS”: “high polyreactivity”; “QVQLVESGGGLVQAGGSLRLSCAASGSIFYANTMGWYRQAPGKEREFVAAITWSGGSTYYADSVKGRFTISRDNAKNTVYLQMNSLKPEDTAVYYCAAEEQRYWYEYYYWGQGTQVTVSS”: “high polyreactivity”.
For the sequence “QVQLVESGGGLVQAGGSLRLSCAASGSIFYAYAMGWYRQAPGKEMELVAAIDTSGGRTYYADSVKGRFTISRDNAKNTVYLQLNSLKPEDTAVYYCDAECPCYNEHYYWGQGTQVTVSS”, the “polyreactivity (PSR sort gate)” value is “high polyreactivity”.
Next, “QVQLVESGGGLVQAGGSLRLSCAASGSIFYAYAMGWYRQAPGKERELVAAIRSSDSRTYYADSVKGRFTISRDNAKNTVYLQMNSLKPEDTAVYYCAADGSRKVKFDYWGQGTQVTVSS”: “high polyreactivity”.
